Laboratory results from paper PMC11341566 (Nature Communications, 2024).
Square brackets hold non-standard residues; d marks the D form.

Assays:
[1] = molecular target: CP-CNDS, fluorescein-labelled (mixture of DCP1 and DCP2, mass ratio 2:3); assay: fluorescence polarisation
trypsin = molecular target: T1, trypsin (UniProt P35030 81-304)
T1 sequence (looked up): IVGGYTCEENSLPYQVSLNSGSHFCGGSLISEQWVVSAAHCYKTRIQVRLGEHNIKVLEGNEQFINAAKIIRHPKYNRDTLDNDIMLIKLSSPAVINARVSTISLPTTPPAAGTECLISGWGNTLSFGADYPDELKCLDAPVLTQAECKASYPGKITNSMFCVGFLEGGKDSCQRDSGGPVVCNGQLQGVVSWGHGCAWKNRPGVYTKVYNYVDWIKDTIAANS

lipase = molecular target: T2, lipase (UniProt P16233 17-465)
T2 sequence (looked up): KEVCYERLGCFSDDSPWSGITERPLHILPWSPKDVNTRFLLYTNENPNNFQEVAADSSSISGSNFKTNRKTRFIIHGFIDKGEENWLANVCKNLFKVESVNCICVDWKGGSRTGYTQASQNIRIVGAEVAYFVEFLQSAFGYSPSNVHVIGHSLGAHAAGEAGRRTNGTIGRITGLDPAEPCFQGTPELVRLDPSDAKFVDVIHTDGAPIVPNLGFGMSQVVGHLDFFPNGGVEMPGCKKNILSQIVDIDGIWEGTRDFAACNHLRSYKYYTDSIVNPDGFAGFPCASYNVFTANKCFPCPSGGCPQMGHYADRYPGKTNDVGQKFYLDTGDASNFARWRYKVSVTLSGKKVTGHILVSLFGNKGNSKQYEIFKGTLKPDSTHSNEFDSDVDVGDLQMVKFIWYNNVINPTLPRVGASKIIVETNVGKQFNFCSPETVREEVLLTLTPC

Molecule: chymotrypsin (enzyme)
- Kd (Ac-(rada)4-NH2): 227 nM

B1: lipase (enzyme)
chain: KEVCYERLGCFSDDSPWSGITERPLHILPWSPKDVNTRFLLYTNENPNNFQEVAADSSSISGSNFKTNRKTRFIIHGFIDKGEENWLANVCKNLFKVESVNCICVDWKGGSRTGYTQASQNIRIVGAEVAYFVEFLQSAFGYSPSNVHVIGHSLGAHAAGEAGRRTNGTIGRITGLDPAEPCFQGTPELVRLDPSDAKFVDVIHTDGAPIVPNLGFGMSQVVGHLDFFPNGGVEMPGCKKNILSQIVDIDGIWEGTRDFAACNHLRSYKYYTDSIVNPDGFAGFPCASYNVFTANKCFPCPSGGCPQMGHYADRYPGKTNDVGQKFYLDTGDASNFARWRYKVSVTLSGKKVTGHILVSLFGNKGNSKQYEIFKGTLKPDSTHSNEFDSDVDVGDLQMVKFIWYNNVINPTLPRVGASKIIVETNVGKQFNFCSPETVREEVLLTLTPC
- Kd [1]: 251 nM

B2: trypsin (enzyme)
chain: IVGGYTCEENSLPYQVSLNSGSHFCGGSLISEQWVVSAAHCYKTRIQVRLGEHNIKVLEGNEQFINAAKIIRHPKYNRDTLDNDIMLIKLSSPAVINARVSTISLPTTPPAAGTECLISGWGNTLSFGADYPDELKCLDAPVLTQAECKASYPGKITNSMFCVGFLEGGKDSCQRDSGGPVVCNGQLQGVVSWGHGCAWKNRPGVYTKVYNYVDWIKDTIAANS
- Kd [1]: 102 nM

B3: Ac-(rada)4-NH2 (peptide)
peptide: Ac-[dR][dA][dD][dA][dR][dA][dD][dA][dR][dA][dD][dA][dR][dA][dD][dA]-NH2
- Kd (trypsin): ~342 nM
- Kd (lipase): ~452 nM
